The values that follow come from patent publication US5618693, “Interleukin-2 signal transducers and binding assays” (Tularik, Inc.).

For this data set, the target named is hStat 5 (affinity purified, 98/94/88 kD from YT cells; 96/95 kD from PBLs) (Homo sapiens, UniProt P42229 SEQ:1-794). The data set is described as follows: pulldown; biotinylated DNA on streptavidin agarose, buffer C, 4 C; retained through wash with mutant oligo 0.2 mg/ml, eluted 0.35 M NaCl. To be noted: tags: native, tyrosine phosphorylated; chain copies: 2. The method, then:
After dialysis, insoluble proteins were removed by centrifugation and the remaining material was chromatographed over a 100 ml S-Sepharose (Pharmacia) column. Protein flow-through was mixed with a DNA-affinity resin prepared by coupling synthetic, biotinylated DNA corresponding to the IL-4 response element of the gene encoding FcgRI (5'-[…]-3) (SEQ ID NO:3) to streptavidin agarose (Sigma). After binding (2 hours at 4° C.), the affinity matrix was placed on a disposable column and washed sequentially with 10 ml of buffer C, 4 ml of buffer C supplemented with a mutated variant of the IL-4 response element (5'-GTATCACCAGTCAAGGAAC-3') (SEQ ID NO:4) at 0.2 mg/ml, and 10 ml of buffer C. Protein was eluted by exposure to buffer C supplemented with 0.35M NaCl, dialyzed against buffer C, and placed on a 0.5 ml Q-Sepharose (Pharmacia) column. The column was washed with 5 ml of buffer C and protein was eluted with 1 ml of buffer C supplemented with 0.35M NaCl.

Sequence of hStat 5 (affinity purified, 98/94/88 kD from YT cells; 96/95 kD from PBLs) (P42229 whole entry): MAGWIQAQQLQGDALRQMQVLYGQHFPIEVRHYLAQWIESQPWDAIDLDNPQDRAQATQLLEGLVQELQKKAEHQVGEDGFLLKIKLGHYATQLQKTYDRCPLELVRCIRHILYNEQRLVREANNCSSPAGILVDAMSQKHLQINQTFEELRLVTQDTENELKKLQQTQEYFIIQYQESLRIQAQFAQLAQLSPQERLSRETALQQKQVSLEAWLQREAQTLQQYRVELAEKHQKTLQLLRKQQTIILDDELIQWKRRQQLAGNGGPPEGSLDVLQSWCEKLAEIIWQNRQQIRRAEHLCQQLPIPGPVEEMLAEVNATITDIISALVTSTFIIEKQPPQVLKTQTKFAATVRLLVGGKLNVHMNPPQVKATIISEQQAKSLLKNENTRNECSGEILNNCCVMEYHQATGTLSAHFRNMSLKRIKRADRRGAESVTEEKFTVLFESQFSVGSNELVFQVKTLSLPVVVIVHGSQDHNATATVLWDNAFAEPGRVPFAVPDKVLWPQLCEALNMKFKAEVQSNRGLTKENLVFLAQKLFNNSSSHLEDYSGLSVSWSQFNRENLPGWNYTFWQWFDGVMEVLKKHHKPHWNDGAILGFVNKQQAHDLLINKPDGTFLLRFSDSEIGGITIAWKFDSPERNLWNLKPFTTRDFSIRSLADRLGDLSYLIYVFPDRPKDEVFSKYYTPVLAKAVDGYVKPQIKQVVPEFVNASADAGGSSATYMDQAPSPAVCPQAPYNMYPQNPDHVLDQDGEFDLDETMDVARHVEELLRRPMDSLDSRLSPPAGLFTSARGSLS

B1: FcgRI IL-4 response element probe (dsDNA)
DNA 1: GTATTTCCCAGAAAAGGAAC
DNA 2: GTTCCTTTTCTGGGAAATAC
As for B1, the binding result is “binds”.
